The record followed here is paper doi:10.1101/2020.01.21.914390 (bioRxiv, 2020).

For this assay, the target named is GST tagged MYB52 fusion protein (Arabidopsis thaliana, UniProt Q6R0C4 1-249). Briefly: pull-down.
Sequence of GST tagged MYB52 fusion protein (Q6R0C4 whole entry, the tested form may be a part): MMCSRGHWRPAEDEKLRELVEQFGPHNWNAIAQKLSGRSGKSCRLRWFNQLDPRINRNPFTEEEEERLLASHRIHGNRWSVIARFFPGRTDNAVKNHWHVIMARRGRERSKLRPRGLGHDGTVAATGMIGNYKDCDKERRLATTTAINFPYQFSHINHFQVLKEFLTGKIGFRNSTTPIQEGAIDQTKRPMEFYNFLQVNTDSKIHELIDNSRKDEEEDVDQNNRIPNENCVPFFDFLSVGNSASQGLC

B1: MBP tagged ERF4 fusion protein (ETHYLENE RESPONSIVE FACTOR4) (natural protein)
chain: not shown
With B1, the binding result is recorded as “binds”.
